Reference: FireProtDB (doi:10.1021/bi00437a058)

B1: Ribonuclease, P00648 (parent)
chain: MMKMEGIALKKRLSWISVCLLVLVSAAGMLFSTAAKTETSSHKAHTEAQVINTFDGVADYLQTYHKLPDNYITKSEAQALGWVASKGNLADVAPGKSIGGDIFSNREGKLPGKSGRTWREADINYTSGFRNSDRILYSSDWLIYKTTDHYQTFTKIR

Variants of: B1
Settings: Bacillus amyloliquefaciens, pH 6.3, Fluorescence, structure 1BNI, whole UniProt chain shown
[1] = 25 °C, GdnHCl, MES 450 mM, reversible: yes (100%)
[2] = 25 °C, Urea, MES 450 mM, reversible: yes (100%)
[3] = Thermal, MES 50 mM, reversible: yes (>85%)
[4] = 48 °C, Thermal, MES 50 mM, reversible: yes (>85%)

| Variant | ddG of mutation (higher = less stable) [1] [kcal/mol] | denaturant m value [1] [kcal/mol/M] | denaturant midpoint (higher = more stable) [1] [M] | unfolding free energy [1] [kcal/mol] | ddG of mutation (higher = less stable) [2] [kcal/mol] | denaturant m value [2] [kcal/mol/M] | denaturant midpoint (higher = more stable) [2] [M] | unfolding free energy [2] [kcal/mol] | Tm [3] [°C] | change of melting temperature, mutant - wild type (higher = more stable) [3] [°C] | unfolding enthalpy (van 't Hoff) [3] [kcal/mol] | ddG of mutation (higher = less stable) [4] [kcal/mol] |
| --- | --- | --- | --- | --- | --- | --- | --- | --- | --- | --- | --- | --- |
| MMKMEGIALKKRLSWISVCLLVLVSAAGMLFSTAAKTETSSHKAHTEAQVINTFDGVADYLQTYHKLPDNYITKSEAQALGWVASKGNLADVAPGKSIGGDIFSNREGKLPGKSGRTWREADINYTSGFRNSDRILYSSDWLVYKTTDHYQTFTKIR [I143V] | 0.69 | 4.64 | 1.76 | 8.19 | 0.74 | 2.11 | 4.11 | 8.68 | 51.5 | -2.4 | 121 |  |
| MMKMEGIALKKRLSWISVCLLVLVSAAGMLFSTAAKTETSSHKAHTEAQVINTFDGVADYLQTYHKLPDNYITKSEAQALGWVASKGNLADVAPGKSIGGDIFSNREGKLPGKSGRTWREADINYTSGFRNSDRILYSSDWLAYKTTDHYQTFTKIR [I143A] | 2.72 | 4.87 | 1.26 | 6.16 | 3.13 | 2.18 | 2.89 | 6.29 | 44.9 | -9.6 | 112 | 3.2 |
| MMKMEGIALKKRLSWISVCLLVLVSAAGMLFSTAAKTETSSHKAHTEAQVINTFDGVADYAQTYHKLPDNYITKSEAQALGWVASKGNLADVAPGKSIGGDIFSNREGKLPGKSGRTWREADINYTSGFRNSDRILYSSDWLIYKTTDHYQTFTKIR [L61A] |  |  |  |  | 4.65 | 2.08 | 2.29 | 4.77 | 42 | -11.9 | 108 | 4.2 |
| MMKMEGIALKKRLSWISVCLLVLVSAAGMLFSTAAKTETSSHKAHTEAQVINTFDGVADYLQTYHKLPDNYITKSEAQALGWVASKGNLADVAPGKSIGGDIFSNREGKLPGKSGRTWREADINYTSGFRNSDRALYSSDWLIYKTTDHYQTFTKIR [I135A] |  |  |  |  | 4.08 | 2.16 | 2.47 | 5.34 | 42.7 | -11.2 | 106 | 3.9 |
| MMKMEGIALKKRLSWISVCLLVLVSAAGMLFSTAAKTETSSHKAHTEAQVINTFDGVADYLQTYHKLPDNYITKSEAQALGWVASKGNLADVAPGKSIGGDIFSNREGKLPGKSGRTWREADINYTSGFRNSDRVLYSSDWLIYKTTDHYQTFTKIR [I135V] |  |  |  |  | 1.47 | 2.06 | 3.87 | 7.95 | 51 | -2.9 | 117 |  |
